# Source: IntAct's records for PubMed 19037259
# Tests used:
# vac14_yeast VAC14 = vac14_yeast VAC14 (UniProt Q06708)
# fig4_yeast FIG4 = fig4_yeast FIG4 (UniProt P42837)
# Sequence of UniProt P42837 (P42837 whole entry): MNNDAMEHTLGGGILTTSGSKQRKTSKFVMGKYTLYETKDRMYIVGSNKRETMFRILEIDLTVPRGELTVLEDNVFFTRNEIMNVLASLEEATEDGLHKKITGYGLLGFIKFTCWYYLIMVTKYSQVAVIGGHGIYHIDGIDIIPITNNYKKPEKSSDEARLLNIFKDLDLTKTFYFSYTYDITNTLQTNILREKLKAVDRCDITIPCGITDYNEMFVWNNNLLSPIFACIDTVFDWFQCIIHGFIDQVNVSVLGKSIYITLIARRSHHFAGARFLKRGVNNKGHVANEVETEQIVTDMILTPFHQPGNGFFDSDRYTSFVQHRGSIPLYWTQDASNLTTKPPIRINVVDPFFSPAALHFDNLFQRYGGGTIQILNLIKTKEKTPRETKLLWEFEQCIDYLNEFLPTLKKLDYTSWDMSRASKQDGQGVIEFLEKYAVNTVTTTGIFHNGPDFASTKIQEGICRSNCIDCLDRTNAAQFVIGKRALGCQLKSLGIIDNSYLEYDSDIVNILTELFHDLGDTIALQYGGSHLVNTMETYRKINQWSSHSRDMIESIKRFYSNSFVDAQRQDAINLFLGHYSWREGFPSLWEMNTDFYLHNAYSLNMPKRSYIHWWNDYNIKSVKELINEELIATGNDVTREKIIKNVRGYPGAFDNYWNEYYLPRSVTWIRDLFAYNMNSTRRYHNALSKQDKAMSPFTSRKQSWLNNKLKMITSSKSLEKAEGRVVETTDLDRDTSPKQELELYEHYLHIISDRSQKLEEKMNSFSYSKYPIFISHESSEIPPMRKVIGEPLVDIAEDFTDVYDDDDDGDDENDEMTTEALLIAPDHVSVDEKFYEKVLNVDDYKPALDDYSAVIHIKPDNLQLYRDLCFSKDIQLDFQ
# Sequence of UniProt Q06708 (Q06708 whole entry): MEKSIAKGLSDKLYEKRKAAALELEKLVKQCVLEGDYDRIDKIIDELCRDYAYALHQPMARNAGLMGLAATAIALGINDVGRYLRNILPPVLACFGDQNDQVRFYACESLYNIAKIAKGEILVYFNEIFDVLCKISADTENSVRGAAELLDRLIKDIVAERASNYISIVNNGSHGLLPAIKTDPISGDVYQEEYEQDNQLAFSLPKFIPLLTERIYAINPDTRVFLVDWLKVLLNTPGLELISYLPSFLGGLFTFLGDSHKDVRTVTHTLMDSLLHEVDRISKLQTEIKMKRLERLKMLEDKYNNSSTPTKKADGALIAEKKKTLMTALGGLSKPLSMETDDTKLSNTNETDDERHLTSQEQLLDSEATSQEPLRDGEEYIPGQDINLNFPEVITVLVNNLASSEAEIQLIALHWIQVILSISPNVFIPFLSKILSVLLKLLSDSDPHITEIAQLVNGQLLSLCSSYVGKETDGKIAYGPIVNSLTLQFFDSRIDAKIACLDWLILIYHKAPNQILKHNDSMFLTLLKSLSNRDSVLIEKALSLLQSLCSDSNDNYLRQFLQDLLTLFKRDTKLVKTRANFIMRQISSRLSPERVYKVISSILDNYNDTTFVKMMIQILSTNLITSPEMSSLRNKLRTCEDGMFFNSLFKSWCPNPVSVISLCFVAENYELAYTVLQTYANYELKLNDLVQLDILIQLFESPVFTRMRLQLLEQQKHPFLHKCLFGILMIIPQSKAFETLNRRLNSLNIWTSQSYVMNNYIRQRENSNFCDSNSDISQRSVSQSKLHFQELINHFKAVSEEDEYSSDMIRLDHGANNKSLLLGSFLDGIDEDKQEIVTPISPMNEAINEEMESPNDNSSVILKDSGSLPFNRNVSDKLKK
substance,measurement,setting,value
"1-phosphatidylinositol 3-phosphate 5-kinase FAB1 (Saccharomyces cerevisiae), P34756 G864E",effect of a mutation on the interaction,vac14_yeast VAC14,disrupting interaction
same,effect of a mutation on the interaction,fig4_yeast FIG4,disrupting interaction
